Assay results as given in patent US20240317871A1 (IMMUNOMIC THERAPEUTICS, published 2024).

How the values were obtained:
[1] = target: T1, murine HVEM (murine, UniProt Q80WM9 39-206, limits assumed); experiment: ELISA
T1 construct: also called Mouse
T1 sequence (looked up): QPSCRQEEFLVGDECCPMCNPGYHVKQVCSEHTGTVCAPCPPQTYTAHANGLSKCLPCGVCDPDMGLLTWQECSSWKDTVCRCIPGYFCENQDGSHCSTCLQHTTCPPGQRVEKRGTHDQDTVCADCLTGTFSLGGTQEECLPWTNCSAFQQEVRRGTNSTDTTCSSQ

[2] = target: T2, human HVEM (human, UniProt Q92956 39-202, limits assumed); experiment: ELISA
T2 sequence (looked up): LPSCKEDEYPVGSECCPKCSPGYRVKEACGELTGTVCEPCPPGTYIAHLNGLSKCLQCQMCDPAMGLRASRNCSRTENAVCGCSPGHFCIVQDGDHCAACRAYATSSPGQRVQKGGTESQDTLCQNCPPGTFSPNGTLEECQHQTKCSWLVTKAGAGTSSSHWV

[3] = target: T3, cynomolgus monkey HVEM (cynomolgus monkey, UniProt A0A2K5W0R1 39-203); experiment: ELISA
T3 sequence: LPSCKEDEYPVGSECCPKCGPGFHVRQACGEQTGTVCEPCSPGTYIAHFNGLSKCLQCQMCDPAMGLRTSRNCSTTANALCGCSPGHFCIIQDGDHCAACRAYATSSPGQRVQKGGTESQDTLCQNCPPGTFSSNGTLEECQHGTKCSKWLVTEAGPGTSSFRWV

[4] = target: T4, Human HEVM recombinant protein (Sino Biological, 10334-H02H) (human, UniProt Q92956 39-202); experiment: competition ELISA, competitor BTLA-His
T4 construct: construct known only by catalogue number; also called HVEM; human HVEM
T4 sequence (looked up): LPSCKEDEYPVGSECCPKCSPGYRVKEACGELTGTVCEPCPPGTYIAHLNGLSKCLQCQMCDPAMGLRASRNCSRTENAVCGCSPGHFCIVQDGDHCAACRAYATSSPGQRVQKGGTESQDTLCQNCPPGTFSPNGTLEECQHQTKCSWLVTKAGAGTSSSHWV
Procedure: The competitive activity of HVEM antibody to BTLA or LIGHT was evaluated with ELISA-based competitive assay. Briefly Human HEVM recombinant protein (Sino Biological, 10334-H02H, 4 ug/ml, 100 ul/well) was coated to ELISA plate (Thermo Scientific, 469949, 4C overnight). A pre-mixture of HVEM antibody clone with seral dilution and 400 nM BTLA-His (R&D systems, 9235-BT-050) or LIGHT-His (SinoBiological, 10386-H07H) recombinant protein was made and added to the ELISA plate after blocking with 3% BSA (200 ul/well, RT 2 Hr) for 1 Hr at RT. The serial dilutions of HVEM antibody clone involve 7 different concentrations, with a 3-fold dilution performed start from 100 nM for BTLA or 325 nM for LIGHT competitive assay. The concentration was the final concentration. Plate was washed with PBST; diluted HRP-anti-His (Biolegend, 652504, 1:1000) with PBS containing 5% FBS was added 100 ul per well for 1 Hr at RT. TMB substrate (KPL, 52-00-00) 100 ul per well after washing and incubate at room temperature for 15 minutes; then stop the development by adding 100 ul stop solution (KPL, 50-85-06). Plate was read at 450 nm. The IC50 was calculated using GraphPad Prism software (GraphPad Software, Inc. San Diego, CA, USA).

[5] = target: T5, His-tagged human HVEM (human, UniProt Q92956 39-202, limits assumed); experiment: BLI OctetRed96, mAb captured, 200 nM His-HVEM
T5 construct: Analyte of the BLI assay, 200 nM in PBS; not shown: His tag
T5 sequence (looked up): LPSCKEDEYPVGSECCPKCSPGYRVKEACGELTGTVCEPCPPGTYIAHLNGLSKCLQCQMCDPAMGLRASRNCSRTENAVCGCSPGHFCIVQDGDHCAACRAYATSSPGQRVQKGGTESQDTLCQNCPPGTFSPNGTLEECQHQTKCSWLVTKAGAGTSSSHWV
Procedure: Binding of antibodies to HVEM may also be determined by bio-layer interferometry (BLI) on an OctetRed96@ system (Sartorius). (See http://www.fortebio.com/bli_technology.html for general description of a BLI assay.) For this experiment, murine anti-human HVEM antibodies were captured from culture supernatant using anti-mouse IgG Fc capture and immobilized to dip and read biosensors. Sensors were then dipped into a solution of 200 nM His-tagged human HVEM in phosphate-buffered saline (PBS). Probes were dipped into PBS assay buffer and the dissociation rate (koff) was measured. The association rate (kₒₙ) and affinity (KD) were determined by curve fitting analysis.

Binder | ELISA signal [1] | ELISA signal [2] | ELISA signal [3] | IC50 [4] | Kd [5] | koff [5] | kon [5]
Ab_085 (H5S20-53A41A) (antibody, V domains shown, also called Ab_85) VH: EVQLVESGGGLVKPGGSLKLSCAASGFTFSSYAMSWVRQSPEKRLEWVAEISSGGSYTYYPDTVTGRFTISRDNAKNTLYLEMSSLRSEDTAMYYCAREGLRRDYYALDYWGQGTSVTVSS VL: not shown | 0.046 | 0.049 | 0.061 | – | – | – | –
Ab_034 (H5S15-16A11B) (antibody, V domains shown, also called Ab_34) VH: DVQLVESGGGLVQPGGSRKLSCAASGFTFSSFGMHWVRQAPEKGLEWVAHISSGSSTIYYADTVKGRFTISRDNPKNTLFLQMTSLRSEDTAMYYCARGAYGNFAWFPYWGQGTLVTVSA VL: DVVMTQTPLSLSVSLGDQASISCRSSQSLVHSNGNTYLHWYLQKPGQSPKLLIYKVSNRFSGVPDRFSGSGSGTDFTLKISRVEAEDLGVYFCSQSTHVPTFGSGTKLEIK | 0.045 | 3.19 | – | 1.3 nM | 8.67 nM | 0.00235 s⁻¹ | 270000 M⁻¹ s⁻¹
Ab_035 (H5S15-9A10A) (antibody, V domains shown, also called Ab_35) VH: DVQLVESGGGLVQPGGSRKLSCAASGFTFSDFGMHWVRQAPEKGLEWVAHISSGSSTIYYADTVKGRFTISRDNPKNTLFLQMTSLRSEDTAMYYCARGAYGNFAWFPYWGQGTLVTVSA VL: DVVMTQTPLSLPVSLGDQASISCRSSQSLVHTNGNTYLHWYLQKPGQSPRLLIYKVSNRFSGVPDRFSGGGSGTDFTLKISRVEAEDLGVYFCSQSTHVPTFGSGTKLEIK | 0.045 | 3.2 | – | 1.4 nM | 6.58 nM | 0.00235 s⁻¹ | 357000 M⁻¹ s⁻¹
Ab_004 (H5S14-24A4A) (antibody, V domains shown, also called Ab_4) VH: EVQLQQSGPELVKPGTSVKISCKTSGYTITEYTMHWVKQSHGKSLEWIGGINPNNGGTINNQKFKDKATLTVDMSSSTAYMELRSLTSEDSAVYYCAGSVVDRYWYFDVWGAGTTVTVSS VL: QIVLTQSPAIMSASPGEKVTISCSASSSVSYMYWYQQKPGSSPKPWIYRTSNLASGVPARFSGSGSGTSYSLTISSMEAEDAATYYCQQYHSYPLTFGAGTKLELK | 0.044 | 2.42 | 0.062 | – | – | – | 769 M⁻¹ s⁻¹
Ab_005 (H5S14-4A4A) (antibody, V domains shown, also called Ab_5) VH: EVQLQQSGPELVKPGASVKISCKTSGYTFTEYTMHWVKQSHGKSLEWIGGINPYNGGTINNQKFKGKATLTVDMSSSTAYMELRSLTSEDSAVYYCAGSVVDRYWYFDVWGAGTTVTVSS VL: QIVLTQSPAIMSASPGEKVTISCSASSSVSYMYWYQQKPGSSPKPWIYRTSNLASGVPARFSGSGSGTSYSLTISSMEAEDAATYYCQQYHSYPLTFGAGTKLELK | 0.048 | 2.44 | 0.063 | – | – | – | 2240 M⁻¹ s⁻¹
Ab_081 (H5S20-44A32A) (antibody, V domains shown, also called Ab_81) VH: EVKLVESGGGLVQPGGSLKLSCAASGFTFSSYTMSWVRQTPEKRLEWVAYISNGGGSTYYPDTVKGRFTISRDNAKNTLYLQMSSLKSEDTAMYYCARHRGYGSSYNYAMDYWGQGTSVTVSS VL: DIVMTQSQKFMSTSVGDRVSVTCKASQNVGTNVAWYQQKPGQSPKALIYSASYRYSGVPDRFTGSGSGTDFTLTISNVQSEDLAEYFCQQYNSYPFTFGSGTKLEIK | 0.048 | 1.59 | 0.076 | – | – | – | –
Ab_082 (H5S20-55A36A) (antibody, V domains shown, also called Ab_82) VH: EVKLVESGGGLVQPGGSLKLSCAASGFTFSSYTMSWVRQTPEKRLEWVADISNGGGSTYYPDTVKGRFTISRDNAKNTLYLQMSSLKSEDTAMYYCARHRGYGNYVYAMDYWGQGTSVTVSS VL: DIVMTQSQKFMSTSVGDRVSVTCKASQNVGTNVAWYQQKPGQSPKALIYSASYRYSGVPDRFTGSGSGTDFTLTISNVQSEDLAEYFCQQYNSYPLTFGGGTKLEIK | 0.044 | 0.844 | 0.06 | – | – | – | –
Ab_053 (H5S19-20A20A) (antibody, V domains shown, also called Ab_53) VH: QVQLKESGPGLVAPSQSLSITCTVSGFSLTSYGVHWVRQPPGKGLEWLGVIWAGGITNYNSALMSRLSISKDNSKSQVFLKMNSLQTDDTAMYYCARDWERDSSGPFVYWGQGTLVTVSA VL: DIQMTQTTSSLSASLGDRVTISCTASQGISNYLNWYQQKPDGTVKLLIYYTSTLHSGVPSRFSGSGSGTDYSLTISNLEPEDIATYYCQQYFKLPWTFGGGTKLEIK | 0.042 | 2.89 | 2.1 | – | 103 nM | 0.00439 s⁻¹ | 42700 M⁻¹ s⁻¹
Ab_052 (H5S19-18A17B) (antibody, V domains shown, also called Ab_52) VH: QVQLKESGPGLVAPSQSLSITCTVSGFSLTIYGVHWVRQPPGKGLEWLGVIWAGGIINYNSALMSRLSISKDNSKSQVFLKMNSLQSDDTAMYYCARDWERDSSGPFAYWGQGTLVTVSA VL: DIQMTQTTSSLSASLGDRVTISCSASQGISNYLNWYQQKPDGTVKLLIYYTSSLHSGVPSRFRGSGSGTDYSLTISNLEPEDIATYYCQQYSKLPWTFGGGTKLEIK | 0.042 | 2.88 | 2.32 | – | 90.9 nM | 0.00734 s⁻¹ | 80700 M⁻¹ s⁻¹
Ab_077 (H5S20-31A16B) (antibody, V domains shown, also called Ab_77) VH: EVQLQQSGAELVRSGASVKLSCTTSGFNIKDYYMHWVKQRPEQGLEWIGWIDPENGDTEYAPKFQGKATMTADTSSNTAYLQLSSLTSEDTAVYYCNSRTLGYWGQGTLVTVSA VL: QIVLTQSPALMSASPGEKVTMTCSASSSVSFIYWYQQKPRSSPKPWIYLTSNLASGVPARFSGSGSGTSYSLTISSMEAEDAATYYCQQWSSNPLTFGAGTKLEL | 0.043 | 0.147 | 0.079 | – | 12400 nM | 1.08 s⁻¹ | 86600 M⁻¹ s⁻¹
Ab_055 (H5S19-1A1A) (antibody, V domains shown, also called Ab_55) VH: DVQLQESGPGLVKPSQSLSLTCTVTGYSITSDYAWNWIRQFPGNKLEWMGYIAYSGGTSYSPSLKSRISITRDTSKNQFFLQLNSVTTEDTATYYCVYFKYGGAFAYWGQGTLVTVSA VL: NIVLTQSPASLAVSLGQRATISCRASESVDSYGNSLMHWYQQKPGQPPKLLIYLASNLESGVPARFSGSGSRTDFTLTIDPVEADDAATYYCQQNNEDPPTFGGGTKLEI | 0.042 | 2.95 | 2.21 | – | 544 nM | 0.0164 s⁻¹ | 30200 M⁻¹ s⁻¹
Ab_076 (H5S20-26A22A) (antibody, V domains shown, also called Ab_76) VH: QIQLVQSGPELKKPGETVKISCRASGYTFTNYGMNWVKQAPGKGLKWMGWINTYTGEPTYADDFKGRFAFSLETSASSAYLQINNLKNEDMATYFCARSLYYGDNYEAYWGQGTLVTVSA VL: QIVLTQSPAIMSASLGEEITLTCSASSSVSYMHWYQQKSGSSPKLLIYTTSNLASGVPSRFSGSGSGTFYSLTISSVEAEDAADYYCHQWSSYTWTFGGGTKLEIK | 0.044 | 2.89 | 2.96 | – | – | – | –
